# Results: EP4714976A1 (Sunshine Lake Pharma Co., Ltd., dated 2026)
# T1: FGFR4 (acro) (UniProt P22455 22-369)
# T1 sequence (looked up): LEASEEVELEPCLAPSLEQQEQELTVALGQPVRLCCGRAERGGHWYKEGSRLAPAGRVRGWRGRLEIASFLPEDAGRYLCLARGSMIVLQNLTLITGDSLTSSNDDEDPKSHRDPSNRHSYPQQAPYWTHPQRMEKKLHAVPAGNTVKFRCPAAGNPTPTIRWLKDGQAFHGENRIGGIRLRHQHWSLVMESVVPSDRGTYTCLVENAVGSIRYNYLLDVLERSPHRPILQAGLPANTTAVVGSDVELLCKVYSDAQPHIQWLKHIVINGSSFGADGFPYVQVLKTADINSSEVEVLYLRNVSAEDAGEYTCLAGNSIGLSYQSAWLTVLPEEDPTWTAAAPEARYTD
# Legend:
# [1] = target: T2, recombinant cynomolgus monkey FGFR2b (cynomolgus monkey); test: ELISA, antibody 1ug/mL
# T2 construct: extracellular domain; bought; also called cynomolgus macaque FGFR2b
# [2] = target: T1, FGFR4 (acro); test: ELISA
# [3] = target: T3, FGFR2c (acro) (UniProt P21802 22-377); test: ELISA
# [4] = target: T4, FGFR2b on KATO III cells (human, UniProt P21802-3 22-822); test: flow cytometry, KATO III cells
# T4 construct: whole, on cells; also called KATO III cells that overexpress FGFR2b
# [5] = target: T3, FGFR2c (acro); test: ELISA, antibody 10 µg/mL
# [6] = target: T5, human FGFR2b (Kaixia Biotechnology, catalog number FGR-HM1BB) (human, UniProt P21802-3 22-378); test: BLI, antibody on AHC2 sensor
# T5 construct: extracellular domain; bought; also called hFGFR2b; human FGFR2b protein
# [7] = target: T5, human FGFR2b (Kaixia Biotechnology, …); test: ELISA, FGFR2b coated at 1 µg/ml
# [8] = target: T1, FGFR4 (acro); test: ELISA, antibody 10 µg/mL
# T5 sequence (P21802 other isoform, or with tags, fused parts or gaps): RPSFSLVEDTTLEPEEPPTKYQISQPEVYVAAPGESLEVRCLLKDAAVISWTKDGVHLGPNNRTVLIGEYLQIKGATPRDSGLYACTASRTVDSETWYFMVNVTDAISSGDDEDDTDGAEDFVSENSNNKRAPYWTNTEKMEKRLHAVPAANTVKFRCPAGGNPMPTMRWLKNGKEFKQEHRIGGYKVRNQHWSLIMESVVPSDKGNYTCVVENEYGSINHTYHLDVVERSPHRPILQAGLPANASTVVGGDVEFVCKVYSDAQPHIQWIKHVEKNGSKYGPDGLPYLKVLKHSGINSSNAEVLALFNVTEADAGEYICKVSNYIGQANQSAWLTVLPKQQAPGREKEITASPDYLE
# T3 sequence (P21802 22-377): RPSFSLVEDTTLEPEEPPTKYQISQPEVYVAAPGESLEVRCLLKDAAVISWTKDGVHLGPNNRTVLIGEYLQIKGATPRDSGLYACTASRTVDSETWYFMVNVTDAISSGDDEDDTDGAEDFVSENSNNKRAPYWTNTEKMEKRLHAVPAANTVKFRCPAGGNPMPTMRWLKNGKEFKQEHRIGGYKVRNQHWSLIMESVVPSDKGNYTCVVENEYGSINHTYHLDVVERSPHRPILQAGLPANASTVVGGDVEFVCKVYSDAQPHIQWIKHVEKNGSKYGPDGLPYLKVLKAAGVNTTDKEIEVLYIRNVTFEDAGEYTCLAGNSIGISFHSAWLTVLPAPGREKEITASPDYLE
# T4 sequence (P21802 other isoform, or with tags, fused parts or gaps): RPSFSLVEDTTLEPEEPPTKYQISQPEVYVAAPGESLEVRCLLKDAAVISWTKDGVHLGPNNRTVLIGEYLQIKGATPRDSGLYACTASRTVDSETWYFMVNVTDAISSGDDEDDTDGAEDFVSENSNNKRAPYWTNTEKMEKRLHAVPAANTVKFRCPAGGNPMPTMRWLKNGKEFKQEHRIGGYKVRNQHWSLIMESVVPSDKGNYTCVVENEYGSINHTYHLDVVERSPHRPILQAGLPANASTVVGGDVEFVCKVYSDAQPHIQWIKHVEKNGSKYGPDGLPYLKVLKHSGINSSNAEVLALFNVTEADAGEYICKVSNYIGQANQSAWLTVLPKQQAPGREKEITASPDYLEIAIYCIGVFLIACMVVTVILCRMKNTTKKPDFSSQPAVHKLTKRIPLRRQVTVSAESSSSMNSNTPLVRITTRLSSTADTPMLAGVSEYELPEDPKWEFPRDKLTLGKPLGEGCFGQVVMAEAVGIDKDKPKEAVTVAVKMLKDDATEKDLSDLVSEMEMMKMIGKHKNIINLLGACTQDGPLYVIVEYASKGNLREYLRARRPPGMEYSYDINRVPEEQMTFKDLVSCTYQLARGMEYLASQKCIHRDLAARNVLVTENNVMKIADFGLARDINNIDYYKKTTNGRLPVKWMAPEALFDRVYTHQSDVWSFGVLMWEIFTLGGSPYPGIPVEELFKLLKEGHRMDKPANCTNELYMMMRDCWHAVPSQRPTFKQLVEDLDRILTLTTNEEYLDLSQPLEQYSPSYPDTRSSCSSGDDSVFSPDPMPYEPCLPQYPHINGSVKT
binder,measurement,setting,value
"1B8 scFv-Fc (Fc fusion, scFv-Fc dimer) QIQLQQSGAELVKPGASVKMSCKASGYTFASYNLHWVKQTPGQGLEWIGLIYPENGDTSYNQKFKGKATLTADTSSTTAYIQLSSLTSEDSAVYFCARGGFDYWGQGTSLTVSSGGGGSGGGGSGGGGSDIKMTQSPASLSASVGETVTITCGASENIYGALNWYQRKQGKSPQLLIYGATNLADGMSSRFSGSGSGRQYSLKISSLHPDDVATYYCQNVLSTPYTFGGGTKLEIKESKYGPPCPPCPAPEAAGGPSVFLFPPKPKDTLMISRTPEVTCVVVDVSQEDPEVQFNWYVDGVEVHNAKTKPREEQFNSTYRVVSVLTVLHQDWLNGKEYKCKVSNKGLPSSIEKTISKAKGQPREPQVYTLPPSQEEMTKNQVSLTCLVKGFYPSDIAVEWESNGQPENNYKTTPPVLDSDGSFFLYSKLTVDKSRWQEGNVFSCSVMHEALHNHYTQKSLSLSLG",OD (450 nm) value,[1],3.25
same,binding result,[2],no binding (tested: 10 µg/mL)
same,binding result,[3],no binding (tested: 10 µg/mL)
same,EC50,[4],0.133 µg/mL
same,OD (450 nm) value,[5],0.076
same,Kd,[6],13.3 nM
same,koff,[6],0.00629 s⁻¹
same,kon,[6],472000 M⁻¹ s⁻¹
same,EC50,[7],0.0273 µg/mL
same,OD (450 nm) value,[8],0.171
